Measurements taken from US20210292390A1, “CHIMERIC ANTIGEN RECEPTORS” (Oxford University Innovation Limited, priority 2016, published 2021).

T1: GADS (Homo sapiens, UniProt O75791)
T1 construct: endogenous in cells; host or cells: Jurkat cells
T1 sequence (O75791 1-330): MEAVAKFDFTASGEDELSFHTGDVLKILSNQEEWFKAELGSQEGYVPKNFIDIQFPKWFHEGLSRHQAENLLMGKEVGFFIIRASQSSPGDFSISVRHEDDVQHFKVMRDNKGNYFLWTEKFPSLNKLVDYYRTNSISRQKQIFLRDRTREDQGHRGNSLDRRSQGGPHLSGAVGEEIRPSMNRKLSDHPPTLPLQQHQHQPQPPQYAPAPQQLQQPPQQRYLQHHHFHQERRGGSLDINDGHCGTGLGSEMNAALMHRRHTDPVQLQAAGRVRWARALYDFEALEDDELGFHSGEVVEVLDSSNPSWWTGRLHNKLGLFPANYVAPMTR

T2: SLP-76 (Homo sapiens, UniProt Q13094)
T2 construct: endogenous in cells; host or cells: Jurkat cells
T2 sequence (Q13094 1-533): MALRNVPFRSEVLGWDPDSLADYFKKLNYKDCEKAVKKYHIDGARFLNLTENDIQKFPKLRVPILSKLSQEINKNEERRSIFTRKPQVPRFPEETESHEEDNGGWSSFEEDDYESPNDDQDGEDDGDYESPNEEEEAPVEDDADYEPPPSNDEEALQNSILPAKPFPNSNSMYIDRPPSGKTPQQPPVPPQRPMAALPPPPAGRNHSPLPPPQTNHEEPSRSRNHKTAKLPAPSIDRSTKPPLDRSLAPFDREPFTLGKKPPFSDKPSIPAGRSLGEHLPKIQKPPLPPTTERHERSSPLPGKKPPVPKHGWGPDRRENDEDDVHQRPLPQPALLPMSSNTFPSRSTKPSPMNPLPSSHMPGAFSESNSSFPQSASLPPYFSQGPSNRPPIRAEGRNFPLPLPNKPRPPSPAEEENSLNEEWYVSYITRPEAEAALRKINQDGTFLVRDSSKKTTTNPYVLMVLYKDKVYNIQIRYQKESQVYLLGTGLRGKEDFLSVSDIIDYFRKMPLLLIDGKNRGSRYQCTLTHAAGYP


Legend:
[1] = biological target: biotinylated CD6 peptide pY629 Y662 (human); assay: SPR (BIAcore 3000), equilibrium binding, biotinylated peptide on streptavidin CM5 chip, 15° C.
[2] = biological target: biotinylated CD6 peptide pY629 pY662 (human); assay: as above
[3] = biological target: biotinylated CD6 peptide pY629 Y662 (human); assay: SPR (BIAcore 3000), equilibrium binding, biotinylated peptide on streptavidin CM5 chip, 37° C.
[4] = biological target: biotinylated CD6 peptide pY629 pY662 (human); assay: as above
[5] = biological target: biotinylated CD6 peptide Y629 pY662 (human); assay: SPR (BIAcore 3000), equilibrium binding, biotinylated peptide on streptavidin CM5 chip, 15° C.
[6] = biological target: biotinylated CD6 peptide Y629 pY662 (human); assay: SPR (BIAcore 3000), equilibrium binding, biotinylated peptide on streptavidin CM5 chip, 37° C.
GADS = biological target: T1, GADS; assay: Co-immunoprecipitation with CD6 constructs in Jurkat cells, Western blot; format: binding; settings: Jurkat cells treated with Na3VO4
From the text: (§1) In FIG. 2(A) Lysate of 8×10^5 Jurkat cells treated with the phosphatase inhibitor Na3VO4 or immunoprecipitation samples of 3×10^6 cells were loaded on gels and after electrophoretic separation they were blotted on nitrocellulose membranes. The membranes were probed with the indicated antibodies and visualised using LI-COR western blotting. FIG. 2(B) illustrates Western Blot bands of three independent CD6 co-immunoprecipitations were quantified using the software ImageJ. Each co-immunoprecipitation value is divided by the intensity of the band in the lysate to compensate for differences in cell numbers used and is normalised to the intensity of EGFP in the co-immunoprecipitation divided by the intensity of EGFP in the lysate to compensate for different expression levels of the constructs. Samples were analysed using the unpaired Student t test comparing values of mutants to the VVT. n=3, error bars show the standard error of the mean, * p<0.05, ** p<0.01, ns=not significant.

SLP-76 = biological target: T2, SLP-76; assay: as above; format: binding; settings: Jurkat cells treated with Na3VO4
From the text: as §1

CD4+ T cells = assay: Primary T cell activation by CD69 expression after CD3 and CD6 antibody stimulation; format: cell-based; settings: CD3 antibodies and 5 μg/ml CD6 antibodies; three donors; versus untransduced cells
Procedure: CD4+ T cells were stimulated with CD3 antibodies and 5 μg/ml CD6 antibodies to crosslink transduced CD6.

primary T cells = assay: Intracellular IL-2 in primary T cells after antibody stimulation; format: cell-based
2B4 Reay cells = assay: IL-2 secretion (ELISA) by hybridoma cells expressing chimeric receptors after CD6 crosslinking; format: cell-based, mouse
From the text: The activity of the exemplary chimeric receptor was compared with that of a comparator chimeric receptor lacking the CD6-derived signalling region. Both chimeric receptor molecules contained the extracellular and transmembrane regions of human CD6 and the cytoplasmic region of mouse CD3 zeta. The exemplary chimeric receptor further comprised residues 623 to 668 from the C terminus of human CD6.
Murine T hybridoma cells were transduced to express either the exemplary or comparator chimeric receptors. Cells were assessed for their response to human CD6 monoclonal antibody immobilised on 96 well tissue culture plates. After incubation for 18 h at 37° C., the supernatants were analysed for the presence of mouse IL-2 by ELISA.
The activity of a comparator chimeric receptor (consisting of the extracellular region of human CD6 and the mouse CD3 zeta tail, effectively a first generation CAR in the cytoplasmic region) was investigated alongside the exemplary chimeric receptor illustrative of CARs or cells of the invention. […] The cells were stimulated with different concentrations of plate-bound T12.1 monoclonal antibody (mAb), a CD6 crosslinking antibody, overnight and secreted mouse IL-2 was measured by ELISA.

Row | Molecule | Kd [2] | Kd [4] | co-immunoprecipitation of GADS (GADS) | co-immunoprecipitation of SLP-76 (SLP-76) | also measured
1 | recombinant GADS SH2 domain (his-tagged) (protein, UniProt O75791 58-149, looked up) WFHEGLSRHQAENLLMGKEVGFFIIRASQSSPGDFSISVRHEDDVQHFKVMRDNKGNYFLWTEKFPSLNKLVDYYRTNSISRQKQIFLRDRT | 140 to 2050 nM | 770 to 1580 nM |  |  | Kd [1]: 150 to 620 nM; Kd [3]: 600 to 880 nM
2 | recombinant SLP-76 SH2 domain (his-tagged) (protein, UniProt Q13094 422-530, looked up) WYVSYITRPEAEAALRKINQDGTFLVRDSSKKTTTNPYVLMVLYKDKVYNIQIRYQKESQVYLLGTGLRGKEDFLSVSDIIDYFRKMPLLLIDGKNRGSRYQCTLTHAA | 260 to 1820 nM | 620 to 2820 nM |  |  | Kd [5]: 310 to 1870 nM; Kd [6]: 890 to 3090 nM
3 | CD6 Y629F: mutant form of CD6 with tyrosine Y629 substituted (protein, left off: large carriers; small tags and cut ends, mutant form of CD6 with tyrosine Y629 substituted) DQLNTSSAESELWEPGERLPVRLTNGSSSCSGTVEVRLEASWEPACGALWDSRAAEAVCRALGCGGAEAASQLAPPTPELPPPPAAGNTSVAANATLAGAPALLCSGAEWRLCEVVEHACRSDGRRARVTCAENRALRLVDGGGACAGRVEMLEHGEWGSVCDDTWDLEDAHVVCRQLGCGWAVQALPGLHFTPGRGPIHRDQVNCSGAEAYLWDCPGLPGQHYCGHKEDAGAVCSEHQSWRLTGGADRCEGQVEVHFRGVWNTVCDSEWYPSEAKVLCQSLGCGTAVERPKGLPHSLSGRMYYSCNGEELTLSNCSWRFNNSNLCSQSLAARVLCSASRSLHNLSTPEVPASVQTVTIESSVTVKIENKESRELMLLIPSIVLGILLLGSLIFIAFILLRIKGKYALPVMVNHQHLPTTIPAGSNSYQPVPITIPKEVFMLPIQVQAPPPEDSDSGSDSDYEHYDFSAQPPVALTTFYNSQRHRVTDEEVQQSRFQMPPLEEGLEELHASHIPTANPGHCITDPPSLGPQYHPRSNSESSTSSGEDYCNSPKSKLPPWNPQVFSSERSSFLEQPPNLELAGTQPAFSAGPPADDSSSTSSGEWFQNFQPPPQPPSEEQFGCPGSPSPQPDSTDNDDYDDISAA |  |  | strongly reduced | strongly reduced | 
4 | CD6 Y662F: mutant form of CD6 with tyrosine Y662 substituted (protein, left off: large carriers; small tags and cut ends, mutant form of CD6 with tyrosine Y662 substituted) DQLNTSSAESELWEPGERLPVRLTNGSSSCSGTVEVRLEASWEPACGALWDSRAAEAVCRALGCGGAEAASQLAPPTPELPPPPAAGNTSVAANATLAGAPALLCSGAEWRLCEVVEHACRSDGRRARVTCAENRALRLVDGGGACAGRVEMLEHGEWGSVCDDTWDLEDAHVVCRQLGCGWAVQALPGLHFTPGRGPIHRDQVNCSGAEAYLWDCPGLPGQHYCGHKEDAGAVCSEHQSWRLTGGADRCEGQVEVHFRGVWNTVCDSEWYPSEAKVLCQSLGCGTAVERPKGLPHSLSGRMYYSCNGEELTLSNCSWRFNNSNLCSQSLAARVLCSASRSLHNLSTPEVPASVQTVTIESSVTVKIENKESRELMLLIPSIVLGILLLGSLIFIAFILLRIKGKYALPVMVNHQHLPTTIPAGSNSYQPVPITIPKEVFMLPIQVQAPPPEDSDSGSDSDYEHYDFSAQPPVALTTFYNSQRHRVTDEEVQQSRFQMPPLEEGLEELHASHIPTANPGHCITDPPSLGPQYHPRSNSESSTSSGEDYCNSPKSKLPPWNPQVFSSERSSFLEQPPNLELAGTQPAFSAGPPADDSSSTSSGEWYQNFQPPPQPPSEEQFGCPGSPSPQPDSTDNDDFDDISAA |  |  | strongly reduced | strongly reduced | 
5 | CD6 Y629F Y662F: mutant form of CD6 with both tyrosine residues Y629 and Y662 substituted (protein, UniProt P30203 1-668, looked up, variant Y629F Y662F) MWLFFGITGLLTAALSGHPSPAPPDQLNTSSAESELWEPGERLPVRLTNGSSSCSGTVEVRLEASWEPACGALWDSRAAEAVCRALGCGGAEAASQLAPPTPELPPPPAAGNTSVAANATLAGAPALLCSGAEWRLCEVVEHACRSDGRRARVTCAENRALRLVDGGGACAGRVEMLEHGEWGSVCDDTWDLEDAHVVCRQLGCGWAVQALPGLHFTPGRGPIHRDQVNCSGAEAYLWDCPGLPGQHYCGHKEDAGAVCSEHQSWRLTGGADRCEGQVEVHFRGVWNTVCDSEWYPSEAKVLCQSLGCGTAVERPKGLPHSLSGRMYYSCNGEELTLSNCSWRFNNSNLCSQSLAARVLCSASRSLHNLSTPEVPASVQTVTIESSVTVKIENKESRELMLLIPSIVLGILLLGSLIFIAFILLRIKGKYALPVMVNHQHLPTTIPAGSNSYQPVPITIPKEVFMLPIQVQAPPPEDSDSGSDSDYEHYDFSAQPPVALTTFYNSQRHRVTDEEVQQSRFQMPPLEEGLEELHASHIPTANPGHCITDPPSLGPQYHPRSNSESSTSSGEDYCNSPKSKLPPWNPQVFSSERSSFLEQPPNLELAGTQPAFSAGPPADDSSSTSSGEWFQNFQPPPQPPSEEQFGCPGSPSPQPDSTDNDDFDDISAA |  |  | almost no SLP-76 and GADS was detected | almost no SLP-76 and GADS was detected | percentage of CD69 positive cells (CD4+ T cells): no significant difference; percentage of IL-2 positive cells (primary T cells; CD3 antibodies but not CD6 antibodies): did not show a significantly increased level of T cell activation; percentage of IL-2 positive cells (primary T cells; both CD3 antibodies and CD6 antibodies, three donors): did not show a significantly increased percentage of IL-2 positive cells
6 | chimeric receptor of SEQ ID NO.4: human CD6 extracellular and transmembrane regions, mouse CD3 zeta cytoplasmic region, plus human CD6 C terminus (protein) MWLFFGITGLLTAALSGHPSPAPPDQLNTSSAESELWEPGERLPVRLTNGSSSCSGTVEVRLEASWEPACGALWDSRAAEAVCRALGCGGAEAASQLAPPTPELPPPPAAGNTSVAANATLAGAPALLCSGAEWRLCEVVEHACRSDGRRARVTCAENRALRLVDGGGACAGRVEMLEHGEWGSVCDDTWDLEDAHVVCRQLGCGWAVQALPGLHFTPGRGPIHRDQVNCSGAEAYLWDCPGLPGQHYCGHKEDAGAVCSEHQSWRLTGGADRCEGQVEVHFRGVWNTVCDSEWYPSEAKVLCQSLGCGTAVERPKGLPHSLSGRMYYSCNGEELTLSNCSWRFNNSNLCSQSLAARVLCSASRSLHNLSTPEVPASVQTVTIESSVTVKIENKESRELMLLIPSIVLGILLLGSLIFIAFILRAKFSRSAETAANLQDPNQLYNELNLGRREEYDVLEKKRARDPEMGGKQQRRRNPQEGVYNALQKDKMAEAYSEIGTKGERRRGKGHDGLYQGLSTATKDTYDALHMQTLAPRTSSGEWYQNFQPPPQPPSEEQFGCPGSPSPQPDSTDNDDYDDISAA |  |  |  |  | increase of IL-2 production as compared to a control receptor lacking the CD6-derived signalling region (2B4 Reay cells): at least 2.5 fold
